Patent US20200339684A1 (published 2020)

T1: human CD83 on the cell surface (KM-H2, L428, FDCP1 and BB88 cells transfected with full length human CD83) (human, UniProt Q01151 20-205)
T1 sequence (looked up): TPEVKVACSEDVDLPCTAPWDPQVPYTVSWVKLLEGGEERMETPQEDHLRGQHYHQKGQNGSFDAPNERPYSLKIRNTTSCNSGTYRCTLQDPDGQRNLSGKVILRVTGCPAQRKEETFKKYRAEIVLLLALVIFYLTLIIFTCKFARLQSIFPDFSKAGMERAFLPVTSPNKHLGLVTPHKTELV

T2: recombinant human CD83 extracellular domain with His tag (hCD83ECD-His) (human, UniProt Q01151 20-144)
T2 construct: extracellular domain; Expressed in CHO cells and purified by IMAC; also called recombinant human CD83ECD-His; recombinant CD83; not shown: His tag
T2 sequence (looked up): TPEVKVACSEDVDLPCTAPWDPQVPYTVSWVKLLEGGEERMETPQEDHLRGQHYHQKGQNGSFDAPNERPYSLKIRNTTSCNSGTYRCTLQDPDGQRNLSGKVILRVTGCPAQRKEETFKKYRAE


How the values were obtained:
[1] = target: T1, human CD83 on the cell surface (KM-H2, …); assay: cell-based or functional assay
[2] = target: T2, recombinant human CD83 extracellular …; assay: BiaCore SPR, Fab over immobilised hCD83ECD
Procedure: (§1) Fab fragments were generated by papain digestion with Pierce Fab MicroFab Preparation Kit, as per the manufacturer's instructions except that the kit-provided Protein A resin was replaced with MAbSelect SuRE resin (Seldon et al., J. Biomol. Tech. 22: 50-2, 2011). Fab were diluted in HBS-EP buffer consisting of 10 mM Hepes, 150 mM Sodium Chloride, 3 mM EDTA, and 0.005% Polysorbate 20 (GE Healthcare). Diluted Fab were assessed for affinity using a BiaCore3000 (GE Healthcare) instrument equipped with a CMS chip coupled with 100 Resonance Units (RU) of hCD83ECD-His protein, using the Kinetic Analysis wizard protocol. Kinetic rates were estimated using BiaEvaluation Software (GE Healthcare) using the inbuilt 1:1 binding model with mass transfer limitations.

[3] = target: T2, recombinant human CD83 extracellular …; assay: BiaCore SPR, Fab over immobilised hCD83ECD, 1:1 model with mass transfer
Procedure: as §1
(§2) FIG. 7A graphically highlights these improvements of 3C12.C binding relative to 3C12.WT, as higher binding signal intensity (i.e., RU) is achieved using reduced concentrations of the VL shuffled variant during the […] Kₒₙ-dependent Association Phase. Similarly, a slower off-rate is observed for 3C12.C Fab during the Koff-dependent dissociation phase.

[4] = target: T2, recombinant human CD83 extracellular …; assay: Biacore SPR, Fab
Procedure: as §1, §2

Binder	ADCC potency in a chromium release assay, fold against 3C12.WT [1]	Kd [2]	koff [2]	kon [2]	Kd [3]	koff [3]	kon [3]	fold reduction in on-rate relative to 3C12 wildtype [4]
3C12.C IgG (affinity matured, VL shuffled variant of 3C12, human IgG1 kappa) (antibody, V domains shown) VH: EVQLQESGGGVVQPGRSLRLSCAASGFTFSSYAMHWVRQAPGKGLEWVAVISYDGSNKYYADSVKGRFTISRDNSKNTLYLQMNSLRAEDTAMYYCARHYYYGMDVWGQGTTLTVSS VL: EIVLTQSPSSLSASVGDRVTITCRASQGIRNYLAWYQQKPGKVPKLLIYATSTLQSGVPSRFSGSRSGTEFTLTISSLHPEDFATYYCQQVDRFPYTFGQGTKVELKR	> 25 fold	–	–	–	–	–	–	–
3C12.WT Fab fragment (Fab, V domains shown, also called 3C12 Fab; wildtype 3C12 Fab) VH: EVQLQESGGGVVQPGRSLRLSCAASGFTFSSYAMHWVRQAPGKGLEWVAVISYDGSNKYYADSVKGRFTISRDNSKNTLYLQMNSLRAEDTAMYYCARHYYYGMDVWGQGTTLTVSS VL: EIVMTQSPSLLSASLGDRVTITCRASQGIKNYFAWYQQRPGKAPKLLIYATSNLQSGVPSRFSGSGSGTEFTLTISSLQPEDFATYYCQQLGAYPLTFGGGTKLELKR	–	130 nM	0.12 s⁻¹	950000 M⁻¹ s⁻¹	130 nM	0.12 s⁻¹	900000 M⁻¹ s⁻¹	–
3C12.C Fab fragment (Fab, V domains shown) VH: EVQLQESGGGVVQPGRSLRLSCAASGFTFSSYAMHWVRQAPGKGLEWVAVISYDGSNKYYADSVKGRFTISRDNSKNTLYLQMNSLRAEDTAMYYCARHYYYGMDVWGQGTTLTVSS VL: EIVLTQSPSSLSASVGDRVTITCRASQGIRNYLAWYQQKPGKVPKLLIYATSTLQSGVPSRFSGSRSGTEFTLTISSLHPEDFATYYCQQVDRFPYTFGQGTKVELKR	–	–	–	–	6.1 nM	0.0078 s⁻¹	1.3e+06 M⁻¹ s⁻¹	–
3C12.Kif IgG (3C12 produced in the presence of kifunensine, low-fucose IgG) (antibody, V domains shown, N-glycan without fucose (high mannose, predominantly GlcNAc2Man9), produced with 2 µg/mL kifunensine) VH: EVQLQESGGGVVQPGRSLRLSCAASGFTFSSYAMHWVRQAPGKGLEWVAVISYDGSNKYYADSVKGRFTISRDNSKNTLYLQMNSLRAEDTAMYYCARHYYYGMDVWGQGTTLTVSS VL: EIVMTQSPSLLSASLGDRVTITCRASQGIKNYFAWYQQRPGKAPKLLIYATSNLQSGVPSRFSGSGSGTEFTLTISSLQPEDFATYYCQQLGAYPLTFGGGTKLELKR	> 25 fold	–	–	–	–	–	–	–
3C12.D Fab fragment (Fab, V domains shown) VH: EVQLQESGGGVVQPGRSLRLSCAASGFTFSSYAMHWVRQAPGKGLEWVAVISYDGSNKYYADSVKGRFTISRDNSKNTLYLQMNSLRAEDTAMYYCARHYYYGMDVWGQGTTLTVSS VL: EIQMTQSPSSLSASVGDRVTITCRASQGISSWLAWYQQKPGKAPKLLIYAASSLQSGVPSRFSGSGSGTEFTLTISSLQPDDFATYYCQKLSSYPYTFGGGTKVELKR	–	–	–	–	25 nM	0.027 s⁻¹	1.1e+06 M⁻¹ s⁻¹	–
3C12.B Fab fragment (Fab, V domains shown) VH: EVQLQESGGGVVQPGRSLRLSCAASGFTFSSYAMHWVRQAPGKGLEWVAVISYDGSNKYYADSVKGRFTISRDNSKNTLYLQMNSLRAEDTAMYYCARHYYYGMDVWGQGTTLTVSS VL: EVVMTQSPSFLSASIGDRVSITCRTSQGISNHLAWYQQKPGKAPKLLIYAASSLQSGVPSRFSGSGSGTDFTLTISSLQPEDIATYYCQQVNSYPYTFGQGTRLELKR	–	–	–	–	43 nM	0.014 s⁻¹	320000 M⁻¹ s⁻¹	~3 fold
3C12.E Fab fragment (Fab, V domains shown) VH: EVQLQESGGGVVQPGRSLRLSCAASGFTFSSYAMHWVRQAPGKGLEWVAVISYDGSNKYYADSVKGRFTISRDNSKNTLYLQMNSLRAEDTAMYYCARHYYYGMDVWGQGTTLTVSS VL: EIVLTQSPSSLSASVGDRVTITCRASQGISNYLAWYQQKPGKVPKLLIYAASTLQSGVPSRFSGSGSGTHFTLTISSLQPEDVATYYCQKCNSAPYTFGQGTKVELKR	–	–	–	–	42 nM	0.05 s⁻¹	1.2e+06 M⁻¹ s⁻¹	–
